± gives the standard deviation of the averaged measurements.
The sequences below were run on ATP (assay: switch fluorescence ratio, 500 uM ATP over buffer (Cy3 cluster intensity, sum of 5 cycles each) (fold (ratio)); higher = stronger signal-on switching upon ATP binding; sequences stand for … in TCGTCGGCAGCGTCAGATGTGTATAAGAGACAGTTTTTTTTTTTTTTTTTTTTTTTTT…TC). Details: aptamer strand: ATP DNA aptamer (quencher-CACCTGGGGGAGTATTGCGGAGGAAGG + anchor), 100 nM annealed; ATP concentration: 500 uM.
Method in brief: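 Between each of five buffer/ATP cycles, the flow-cell was stripped with NaOH and re-annealed. Each cycle imaged Cy3-labelled switching-strand clusters, annealed to 100 nM quencher-labelled ATP aptamer on a modified Illumina MiSeq flow-cell, first in selection buffer and then after 15 min with 500 uM ATP at 22 °C. The fluorescence ratio is summed target-cycle over summed buffer-cycle Cy3 intensity per cluster, averaged per switch-domain sequence, with clusters outside 100-1000 RFU excluded.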
For TCGGGTAGGG, the switch fluorescence ratio was 0.991 ± 0.025. In the case of TCGGGTCTGC, the switch fluorescence ratio is reported as 1.01 ± 0.015. With TCGGGTTGTA the switch fluorescence ratio was 1 ± 0.025. TCGGGTTTAG gave a switch fluorescence ratio of 1.04 ± 0.04. Sequence TCGGGTTTGG has a switch fluorescence ratio of 1.01 ± 0.041. Sequence TCGGTACGG has a switch fluorescence ratio of 1.07 ± 0.017. Work on TCGGTAGGGG yielded a switch fluorescence ratio of 0.999 ± 0.025. In the case of TCGGTATATG, the switch fluorescence ratio is reported as 0.991 ± 0.011. Sequence TCGGTATGAG has a switch fluorescence ratio of 0.9698 ± 0.0027. TCGGTCCAGG showed a switch fluorescence ratio of 1.39 ± 0.14. TCGGTGCGAC was tested, and the switch fluorescence ratio was 1.04 ± 0.032. In the case of TCGGTGTGAG, the switch fluorescence ratio is reported as 1.01 ± 0.03. Work on TCGGTGTGCG yielded a switch fluorescence ratio of 1.03 ± 0.033. In the case of TCGGTGTGCT, the switch fluorescence ratio is reported as 1.06 ± 0.064. Sequence TCGGTTAGT has a switch fluorescence ratio of 0.96 ± 0.054. With TCGGTTCGTG the switch fluorescence ratio was 1.01 ± 0.054. For TCGGTTTATA, the switch fluorescence ratio was 0.997 ± 0.01. With TCGGTTTGGA the switch fluorescence ratio was 1.019 ± 0.0063. TCGGTTTGGT was tested, and the switch fluorescence ratio was 1.01 ± 0.024. TCGTAAGAAA showed a switch fluorescence ratio of 1.01 ± 0.043. TCGTACAGTT was tested, and the switch fluorescence ratio was 1.03 ± 0.02. With TCGTACGTTT the switch fluorescence ratio was 1.04 ± 0.021. With TCGTAGCTAA the switch fluorescence ratio was 4.37 ± 0.23. Work on TCGTAGGCCT yielded a switch fluorescence ratio of 0.981 ± 0.061. TCGTAGGGTC was tested, and the switch fluorescence ratio was 0.982 ± 0.047. TCGTATCGGG was tested, and the switch fluorescence ratio was 1 ± 0.034. Work on TCGTATCGTA yielded a switch fluorescence ratio of 0.975 ± 0.013. TCGTATGCGT showed a switch fluorescence ratio of 1.11 ± 0.25. With TCGTATGTTT the switch fluorescence ratio was 0.985 ± 0.021. For TCGTCAAAGA, the switch fluorescence ratio was 1.07 ± 0.023. TCGTCATTGC gave a switch fluorescence ratio of 1.22 ± 0.037. Work on TCGTCGGGGC yielded a switch fluorescence ratio of 1.03 ± 0.029. TCGTCGTACG was tested, and the switch fluorescence ratio was 1.02 ± 0.021. In the case of TCGTCGTAGG, the switch fluorescence ratio is reported as 1.01 ± 0.03. In the case of TCGTGAACGT, the switch fluorescence ratio is reported as 0.978 ± 0.011. TCGTGCAACA showed a switch fluorescence ratio of 0.983 ± 0.025. In the case of TCGTGCTGCG, the switch fluorescence ratio is reported as 1.0004 ± 0.00051. TCGTGGAGGT showed a switch fluorescence ratio of 0.985 ± 0.036. TCGTGGGGGA gave a switch fluorescence ratio of 1.02 ± 0.028. TCGTGGGGGT showed a switch fluorescence ratio of 0.979 ± 0.045. TCGTGGGGTT gave a switch fluorescence ratio of 1.02 ± 0.012. With TCGTGGTCTG the switch fluorescence ratio was 0.999 ± 0.036. In the case of TCGTGTAAAC, the switch fluorescence ratio is reported as 0.981 ± 0.028. TCGTGTATTG was tested, and the switch fluorescence ratio was 0.984 ± 0.026. TCGTGTTCTG gave a switch fluorescence ratio of 1.01 ± 0.029. TCGTGTTTCA showed a switch fluorescence ratio of 1 ± 0.014. TCGTTACAGA was tested, and the switch fluorescence ratio was 1.02 ± 0.045. In the case of TCGTTATGGA, the switch fluorescence ratio is reported as 0.987 ± 0.035. In the case of TCGTTATTTT, the switch fluorescence ratio is reported as 1.04 ± 0.052. TCGTTCACTG showed a switch fluorescence ratio of 0.9891 ± 0.007. Sequence TCGTTCAGGA has a switch fluorescence ratio of 0.995 ± 0.013. TCGTTCCGGT was tested, and the switch fluorescence ratio was 1.02 ± 0.026. TCGTTGAGGG gave a switch fluorescence ratio of 0.96 ± 0.036. In the case of TCGTTGATGT, the switch fluorescence ratio is reported as 1 ± 0.049. Sequence TCGTTGTTAG has a switch fluorescence ratio of 0.992 ± 0.02. Sequence TCGTTTAGCA has a switch fluorescence ratio of 1.07 ± 0.029. In the case of TCGTTTCCGT, the switch fluorescence ratio is reported as 0.984 ± 0.035. For TCGTTTGAGT, the switch fluorescence ratio was 0.997 ± 0.021. TCTAACGCTG gave a switch fluorescence ratio of 1.13 ± 0.056. For TCTAACTTTT, the switch fluorescence ratio was 1.01 ± 0.033. TCTAAGGGAG gave a switch fluorescence ratio of 0.987 ± 0.012. In the case of TCTAATAGCC, the switch fluorescence ratio is reported as 1.03 ± 0.08. TCTAATGGGC showed a switch fluorescence ratio of 0.993 ± 0.05. For TCTAATGGGT, the switch fluorescence ratio was 0.982 ± 0.017. Sequence TCTAATTCCT has a switch fluorescence ratio of 1.06 ± 0.024. Work on TCTAGAGCGG yielded a switch fluorescence ratio of 1.02 ± 0.029. With TCTAGGGACA the switch fluorescence ratio was 1.25 ± 0.063. For TCTAGGGGGG, the switch fluorescence ratio was 1.02 ± 0.058. TCTATAAGGA showed a switch fluorescence ratio of 1.01 ± 0.048. TCTATAAGTT showed a switch fluorescence ratio of 1.02 ± 0.044. With TCTATGCGGG the switch fluorescence ratio was 1.017 ± 0.0013. Sequence TCTATTATCA has a switch fluorescence ratio of 1.04 ± 0.024. TCTATTATTT gave a switch fluorescence ratio of 1.03 ± 0.061. TCTATTGGTG gave a switch fluorescence ratio of 1.02 ± 0.069. In the case of TCTATTGGTT, the switch fluorescence ratio is reported as 0.966 ± 0.021. TCTATTTCGT showed a switch fluorescence ratio of 1.01 ± 0.032. TCTCATTCTT was tested, and the switch fluorescence ratio was 1.03 ± 0.028. TCTCATTGGG gave a switch fluorescence ratio of 0.9875 ± 0.004. With TCTCCAGATA the switch fluorescence ratio was 1.12 ± 0.034. TCTCCAGGAA was tested, and the switch fluorescence ratio was 1.62 ± 0.3. TCTCCGTGGG was tested, and the switch fluorescence ratio was 1.52 ± 0.37. TCTCGATTTT gave a switch fluorescence ratio of 1.038 ± 0.0042. Work on TCTCGCTTGG yielded a switch fluorescence ratio of 1.02 ± 0.037. For TCTCGGCGGA, the switch fluorescence ratio was 1.02 ± 0.028. TCTCGGGCTT gave a switch fluorescence ratio of 0.9873 ± 0.0047. With TCTCGGGGTG the switch fluorescence ratio was 1.04 ± 0.089. Sequence TCTCGTATAT has a switch fluorescence ratio of 1.05 ± 0.045. TCTCGTCTCT was tested, and the switch fluorescence ratio was 1.04 ± 0.028. Work on TCTCGTTGGG yielded a switch fluorescence ratio of 1.012 ± 0.005. TCTCGTTTTT showed a switch fluorescence ratio of 1 ± 0.043. For TCTCTAAAGA, the switch fluorescence ratio was 1.04 ± 0.016. TCTCTATCCG gave a switch fluorescence ratio of 0.997 ± 0.046. TCTCTGAATC showed a switch fluorescence ratio of 1.24 ± 0.079. TCTCTGGAGA showed a switch fluorescence ratio of 1.04 ± 0.011. Sequence TCTCTGGCAT has a switch fluorescence ratio of 1.79 ± 0.19. Work on TCTCTGTTTT yielded a switch fluorescence ratio of 1.05 ± 0.022. TCTGAAAGTG showed a switch fluorescence ratio of 0.989 ± 0.059. For TCTGAACGGT, the switch fluorescence ratio was 0.983 ± 0.023. Work on TCTGAGAGGA yielded a switch fluorescence ratio of 0.972 ± 0.032. TCTGAGCCGA gave a switch fluorescence ratio of 1.39 ± 0.52. Sequence TCTGAGCGGC has a switch fluorescence ratio of 0.9349 ± 0.0037. TCTGAGTTTT was tested, and the switch fluorescence ratio was 1.05 ± 0.06. Sequence TCTGATGGGG has a switch fluorescence ratio of 1 ± 0.044. For TCTGCCTTGG, the switch fluorescence ratio was 0.984 ± 0.011. Sequence TCTGCTACAA has a switch fluorescence ratio of 1.02 ± 0.038. In the case of TCTGCTTCCG, the switch fluorescence ratio is reported as 1.03 ± 0.02. In the case of TCTGGAAAGG, the switch fluorescence ratio is reported as 0.9844 ± 0.00033. In the case of TCTGGAAGGG, the switch fluorescence ratio is reported as 1.02 ± 0.019. TCTGGACTCG showed a switch fluorescence ratio of 1 ± 0.025. Sequence TCTGGGAAAA has a switch fluorescence ratio of 0.918 ± 0.037. With TCTGGGAAGG the switch fluorescence ratio was 1.01 ± 0.042. In the case of TCTGGGAATG, the switch fluorescence ratio is reported as 0.983 ± 0.01. With TCTGGGGGGC the switch fluorescence ratio was 0.996 ± 0.075. TCTGGGGGGG showed a switch fluorescence ratio of 0.99 ± 0.052. TCTGGGGGTA was tested, and the switch fluorescence ratio was 0.982 ± 0.022. TCTGGGTAAT was tested, and the switch fluorescence ratio was 0.996 ± 0.0013. TCTGGGTAGC was tested, and the switch fluorescence ratio was 1 ± 0.061. With TCTGGGTGAT the switch fluorescence ratio was 1.03 ± 0.015. For TCTGGTAGGG, the switch fluorescence ratio was 0.99 ± 0.01. TCTGGTGGTT was tested, and the switch fluorescence ratio was 0.981 ± 0.01. Sequence TCTGGTTTGT has a switch fluorescence ratio of 1.04 ± 0.049. For TCTGGTTTTT, the switch fluorescence ratio was 1.01 ± 0.015. TCTGTCCCGC showed a switch fluorescence ratio of 1.16 ± 0.11. TCTGTGTTT gave a switch fluorescence ratio of 0.9348 ± 0.0089. TCTGTTTTTG was tested, and the switch fluorescence ratio was 1.01 ± 0.063. In the case of TCTTAAAGGG, the switch fluorescence ratio is reported as 0.9808 ± 0.0011. With TCTTACTGGG the switch fluorescence ratio was 0.997 ± 0.018. TCTTAGGGGT was tested, and the switch fluorescence ratio was 0.981 ± 0.021. With TCTTAGGTCA the switch fluorescence ratio was 0.973 ± 0.022. In the case of TCTTAGTAC, the switch fluorescence ratio is reported as 1.05 ± 0.013. TCTTAGTGGG was tested, and the switch fluorescence ratio was 1.01 ± 0.017. In the case of TCTTAGTTAG, the switch fluorescence ratio is reported as 0.9878 ± 0.0059. In the case of TCTTAGTTTG, the switch fluorescence ratio is reported as 0.986 ± 0.015. With TCTTATAGGT the switch fluorescence ratio was 0.986 ± 0.017. Work on TCTTATCGTT yielded a switch fluorescence ratio of 0.964 ± 0.019. TCTTATGCGG gave a switch fluorescence ratio of 0.998 ± 0.019. With TCTTATGGGG the switch fluorescence ratio was 0.994 ± 0.019. For TCTTCCGGTT, the switch fluorescence ratio was 1.233 ± 0.0018. With TCTTGCAAGG the switch fluorescence ratio was 1.11 ± 0.17. In the case of TCTTGCGTGG, the switch fluorescence ratio is reported as 0.954 ± 0.01. In the case of TCTTGCTCGG, the switch fluorescence ratio is reported as 1.01 ± 0.053. TCTTGCTCGT showed a switch fluorescence ratio of 1.02 ± 0.0014. TCTTGGGCCG showed a switch fluorescence ratio of 1.03 ± 0.061. With TCTTGGGCTG the switch fluorescence ratio was 0.9719 ± 0.0073. TCTTGGGGGC showed a switch fluorescence ratio of 1.01 ± 0.052. Sequence TCTTGGGGT has a switch fluorescence ratio of 1.06 ± 0.15. Sequence TCTTGGTAAT has a switch fluorescence ratio of 0.996 ± 0.018. TCTTGTGCAT gave a switch fluorescence ratio of 1.05 ± 0.03. Work on TCTTGTTAT yielded a switch fluorescence ratio of 1.01 ± 0.051. In the case of TCTTGTTTTG, the switch fluorescence ratio is reported as 0.994 ± 0.048. Sequence TCTTTAATTT has a switch fluorescence ratio of 0.985 ± 0.026. TCTTTCAGTT showed a switch fluorescence ratio of 0.9816 ± 0.0082. TCTTTGAGGT was tested, and the switch fluorescence ratio was 0.989 ± 0.022.

From the supplement of paper PMC10126150
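Further: ATP exposure 15 min at 22 °C before imaging.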
